According to patent publication US7208293:

How the values were obtained:
BPTI(K15L)-III MA phage = target: T1, BPTI(K15L)-III MA phage (bovine; phage M13); assay: pH elution from HNE beads
T1 construct: Whole M13 phage (ampicillin resistance) displaying the variant on gene III protein; also called BPTI(K15L)-III phage
Description: Samples were mixed on a Labquake shaker for 3 hours. The beads were washed with 0.5 ml of TBS/BSA for 5 minutes and recovered by centrifugation. The supernatant was removed and the beads were washed 5 times with 0.5 ml of TBS/0.1% Tween-20. Finally, the beads were resuspended in 0.5 ml of elution buffer (0.1 M HCl containing 1.0 mg/ml BSA adjusted to pH 2.2 with glycine), mixed for 5 minutes and recovered by centrifugation. The supernatant fraction was removed, neutralized with 130 µl of 1 M Tris, pH 8.0, diluted in LB broth, and titered for plaque-forming units on a lawn of cells.

[1] = target: T2, BPTI(K15L,MGNG)-III MA phage (bovine; phage M13); assay: phage eluted from HNE beads
T2 construct: also called BPTI3.CL; BPTI-IIIMK (K15L MGNG)
T2 sequence (chain, as listed by the source): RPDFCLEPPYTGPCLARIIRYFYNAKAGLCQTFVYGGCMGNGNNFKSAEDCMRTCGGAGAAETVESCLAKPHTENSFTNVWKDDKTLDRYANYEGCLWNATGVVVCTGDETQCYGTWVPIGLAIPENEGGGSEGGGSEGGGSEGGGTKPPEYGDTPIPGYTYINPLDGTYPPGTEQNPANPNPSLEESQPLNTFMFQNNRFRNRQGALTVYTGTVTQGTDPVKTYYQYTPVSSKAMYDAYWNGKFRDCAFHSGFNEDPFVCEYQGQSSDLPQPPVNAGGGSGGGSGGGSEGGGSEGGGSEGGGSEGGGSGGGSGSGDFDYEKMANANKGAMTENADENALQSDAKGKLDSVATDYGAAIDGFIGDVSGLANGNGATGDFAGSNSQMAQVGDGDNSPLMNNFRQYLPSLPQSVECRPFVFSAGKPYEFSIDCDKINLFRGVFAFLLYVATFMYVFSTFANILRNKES

B1: human neutrophil elastase (enzyme, UniProt P08246 30-247, looked up)
chain: IVGGRRARPHAWPFMVSLQLRGGHFCGATLIAPNFVMSAAHCVANVNVRAVRVVLGAHNLSRREPTRQVFAVQRIFENGYDPVNLLNDIVILQLNGSATINANVQVAQLPAQGRRLGNGVQCLAMGWGLLGRNRGIASVLQELNVTVVTSLCRRSNVCTLVRGRQAGVCFGDSGSPLVCNGLIHGIASFVRGGCASGLYPDAFAPVAQFVNWIDSIIQ
notes: also called HNE; HNE beads
- binding result (BPTI(K15L)-III MA phage): binds
- binding result [1]: binds
